{
  "source": "paper PMC9605497",
  "about": "“Potential of Epidermal Growth Factor-like Peptide from the Sea Cucumber Stichopus horrens to Increase the Growth of Human Cells: In Silico Molecular Docking Approach” (Marine Drugs, 2022)",
  "target": "T1, human epidermal growth factor receptor (human (endogenous in melanoma cells …, UniProt P00533 25-1210))",
  "T1 construct": "epidermal growth factor receptor, human, as present on human melanoma cells (CRL-1872); The cells were not transfected; also called hEGFR; EGFR; source: endogenous, human melanoma cells (CRL-1872, ATCC), formalin-fixed in a 96-well plate",
  "assay": "ligand binding assay on fixed cells (biotinylated ligand, NeutrAvidin-HRP, ABTS, absorbance at 405 nm); formalin-fixed human melanoma cells in a 96-well plate; biotinylated peptide at 10, 50 and 500 nM in MEM with 0.1% BSA and 200 mM HEPES, 37 °C, 1 h; washes with cold PBS and 0.3 M NaCl; triplicates",
  "settings": "one partner purified",
  "data": [
    {"binder": "Recombinant human EGF (ligand, biotin (conjugated with NHS-biotin; sites not stated), also called rhEGF; source: bought: Thermo Scientific; biotinylated with NHS-biotin) MNSDSECPLSHDGYCLHDGVCMYIEALDKYACNCVVGYIGERCQYRDLKWWELR", "values": [
      {"measurement": "increase of the relative binding percentage on a tenfold higher concentration", "result": 4, "unit": "%"}
    ]}
  ]
}
